Measured values reported in patent publication US20030130484A1, “Inhibitors and disassemblers of fibrillogenesis” (priority 2001, published 2003).
Where two headings read alike, the source gives them in different places.

Key:
[1] = molecular target: human Aβ1-40 peptide (human); experiment: cell-based or functional assay
Aβ16-22m = experiment: size exclusion chromatography, self-association
[2] = molecular target: human Aβ1-40 peptide (human); experiment: cell-based or functional assay; remark: listed apart in the source

**Q.** How did the IC50 of inhibition of fibrillogenesis (thioflavin fluorescence) (inhibitor:Aβ40 ratio) [1] turn out when KLVFFAE (modifications not checked) [Aβ16-22m] was run?
**A.** Its IC50 of inhibition of fibrillogenesis (thioflavin fluorescence) (inhibitor:Aβ40 ratio) is 4.

**Q.** What about the Inhibition of Fibrillogenesis IC50 (thioflavin fluorescence) (inhibitor:Aβ40 molar ratio) [1] of the same binder?
**A.** Its Inhibition of Fibrillogenesis IC50 (thioflavin fluorescence) (inhibitor:Aβ40 molar ratio) is 4.2.

**Q.** And the Inhibition of Fibrillogenesis ICmax [1]?
**A.** The Inhibition of Fibrillogenesis ICmax was 100%.

**Q.** What about the Inhibition of Fibrilogenesis IC50 (µM) [1] of the same binder?
**A.** The Inhibition of Fibrilogenesis IC50 (µM) was 4.2 µM.

**Q.** What about the Inhibition of Fibrilogenesis ICmax (%) [1] of the same binder?
**A.** The Inhibition of Fibrilogenesis ICmax (%) was 100%.

**Q.** And the molar excess giving complete elimination of thioflavin fluorescence (fold molar excess) [1]?
**A.** The molar excess giving complete elimination of thioflavin fluorescence (fold molar excess) was 30.

**Q.** And the percent oligomer (% oligomer (at 0.1 mg/ml)) (Aβ16-22m)?
**A.** The percent oligomer (% oligomer (at 0.1 mg/ml)) was 1 to 91.

**Q.** What about the percent oligomer (% oligomer (at 6 mg/ml)) (Aβ16-22m) of the same binder?
**A.** The percent oligomer (% oligomer (at 6 mg/ml)) was 1 to 91.

**Q.** Which results are given for ELVFFAK (modifications not checked) [Aβ16-22mR]?
**A.** IC50 of inhibition of fibrillogenesis (thioflavin fluorescence) (inhibitor:Aβ40 ratio) [1]: 9; Inhibition of Fibrillogenesis IC50 (thioflavin fluorescence) (inhibitor:Aβ40 molar ratio) [1]: 7.8; Inhibition of Fibrillogenesis ICmax [1]: 100%; Inhibition of Fibrilogenesis IC50 (µM) [1]: 7.8 µM; Inhibition of Fibrilogenesis ICmax (%) [1]: 100%; ratio giving complete elimination of thioflavin fluorescence (inhibitor:Aβ40 ratio) [1]: 50

**Q.** KLVFF (modifications not checked) [Aβ16-20] was tested. Which Inhibition IC50 (thioflavin T fluorescence) (inhibitor to Aβ40 molar ratio) [1] did it give?
**A.** The Inhibition IC50 (thioflavin T fluorescence) (inhibitor to Aβ40 molar ratio) was 5.3.

**Q.** What about the Inhibition ICmax [1] of the same binder?
**A.** Its Inhibition ICmax is 89%.

**Q.** And the Inhibition IC50 (thioflavin T assay) (inhibitor:Aβ1-40 ratio) [2]?
**A.** The Inhibition IC50 (thioflavin T assay) (inhibitor:Aβ1-40 ratio) was 9.7.

**Q.** And the Inhibition ICmax [2]?
**A.** The Inhibition ICmax was 100%.

**Q.** Which results are given for KLVFF (modifications not checked) [Aβ16-20m]?
**A.** Inhibition IC50 (thioflavin T fluorescence) (inhibitor to Aβ40 molar ratio) [1]: 6.5; Inhibition ICmax [1]: 100%; Inhibition of Fibrilogenesis IC50 (µM) [1]: 0.4 µM; Inhibition of Fibrilogenesis ICmax (%) [1]: 100%; Inhibition IC50 (thioflavin T assay) (inhibitor:Aβ1-40 ratio) [2]: 6.9

**Q.** Which Inhibition IC50 (thioflavin T assay) (inhibitor:Aβ1-40 ratio) [2] does the source give for KLVFF (modifications not checked) [Aβ16-20e] here?
**A.** Its Inhibition IC50 (thioflavin T assay) (inhibitor:Aβ1-40 ratio) is 3.7.

**Q.** What about the Inhibition ICmax [2] of the same binder?
**A.** The Inhibition ICmax was 100%.
